According to patent publication US20250289867A1:

Molecular target: MERS spike on pseudotyped lentiviral particles (MERS coronavirus) (UniProt K9N5Q8)
Assay: cell-based or functional assay

Chain of UniProt K9N5Q8 (K9N5Q8 18-1353): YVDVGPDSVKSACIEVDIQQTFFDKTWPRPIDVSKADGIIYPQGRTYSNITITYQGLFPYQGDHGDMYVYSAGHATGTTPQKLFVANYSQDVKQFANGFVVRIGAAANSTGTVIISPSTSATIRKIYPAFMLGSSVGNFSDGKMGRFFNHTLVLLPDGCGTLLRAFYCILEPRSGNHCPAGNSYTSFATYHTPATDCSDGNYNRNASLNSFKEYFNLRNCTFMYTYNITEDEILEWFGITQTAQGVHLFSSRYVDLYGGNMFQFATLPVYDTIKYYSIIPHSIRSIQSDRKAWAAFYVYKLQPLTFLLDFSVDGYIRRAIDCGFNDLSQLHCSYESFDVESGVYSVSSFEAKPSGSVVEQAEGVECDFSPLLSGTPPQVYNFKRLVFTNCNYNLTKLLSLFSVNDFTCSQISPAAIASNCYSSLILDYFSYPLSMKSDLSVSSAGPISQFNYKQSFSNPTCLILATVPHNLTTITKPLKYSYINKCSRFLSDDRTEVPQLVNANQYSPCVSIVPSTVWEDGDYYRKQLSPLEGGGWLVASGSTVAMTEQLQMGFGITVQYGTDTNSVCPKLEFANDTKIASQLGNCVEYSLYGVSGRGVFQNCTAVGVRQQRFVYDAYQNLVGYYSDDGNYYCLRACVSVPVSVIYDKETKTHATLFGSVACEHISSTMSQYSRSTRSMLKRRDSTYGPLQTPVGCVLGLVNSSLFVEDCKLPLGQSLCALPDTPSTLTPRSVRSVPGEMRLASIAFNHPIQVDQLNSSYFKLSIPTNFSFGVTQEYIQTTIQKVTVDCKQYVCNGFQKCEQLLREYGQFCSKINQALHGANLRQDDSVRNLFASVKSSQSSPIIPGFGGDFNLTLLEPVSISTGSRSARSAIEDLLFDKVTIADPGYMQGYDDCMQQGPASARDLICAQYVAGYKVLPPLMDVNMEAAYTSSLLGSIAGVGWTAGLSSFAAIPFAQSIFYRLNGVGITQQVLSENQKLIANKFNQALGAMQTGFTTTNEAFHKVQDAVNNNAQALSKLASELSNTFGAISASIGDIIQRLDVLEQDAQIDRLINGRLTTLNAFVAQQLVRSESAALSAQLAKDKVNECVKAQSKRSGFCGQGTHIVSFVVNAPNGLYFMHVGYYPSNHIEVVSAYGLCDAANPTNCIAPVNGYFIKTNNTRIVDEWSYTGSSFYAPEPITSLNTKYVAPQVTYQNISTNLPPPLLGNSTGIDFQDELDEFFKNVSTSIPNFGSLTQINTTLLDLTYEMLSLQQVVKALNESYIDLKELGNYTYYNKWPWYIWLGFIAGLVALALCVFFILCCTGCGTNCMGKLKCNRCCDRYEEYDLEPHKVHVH

Substance	IC50, pseudovirus microneutralization assay, H1650 target cells	IC50, pseudovirus neutralization assay, H1650 target cells
DPP4 recombinant protein (from UniProt P27487 39-766) (receptor)	> 48000 pM	–
NA75-DPP4, displayed on lentiviral-based multivalent particles (from UniProt P27487 30-766) (receptor)	–	0.87 pM
